Measured values: PMC9000958, “Sticks and Stones, a conserved cell surface ligand for the Type IIa RPTP Lar, regulates neural circuit wiring in Drosophila” (eLife, 2022)
Values belong to the molecule of their own block, whether it stands above or below them.

Assays:
[1] = biological target: Lar-Fc fusion protein (Drosophila) (UniProt P16621); assay: ELISA; ECIA: Fc fusion bait (1x supernatant) captured by anti-human IgG (Fc-specific) on plate; AP5 fusion prey (1x supernatant) pre-clustered with anti-AP:biotin, overnight at room temperature; streptavidin:HRP, TMB, absorbance at 450 nm
[2] = biological target: Lar, ectopically expressed in Tub>Lar embryos (Drosophila) (UniProt P16621); assay: immunostaining of cells or tissue; live-dissected stage 16 embryos (WT or Tub-GAL4 overexpression) incubated 2 hr at room temperature with AP or AP5 fusion protein supernatants (1x or concentrated), fixed in 4% paraformaldehyde, detected with anti-AP antibody; staining intensity compared with WT embryos
[3] = biological target: Nephrin or Sns (expressed in Tub>NPHS1 or Tub>Sns embryos); assay: as above
[4] = biological target: Sticks and Stones (Sns), ectopically expressed in Tub>Sns embryos (Drosophila); assay: as above
[5] = biological target: Sns-AP5 fusion protein (Drosophila); assay: ELISA; ECIA with mi3 particles: AP5 bait (10 ng/ul) on streptavidin-coated plate; mi3 particles or Fc fusion proteins as prey at 10 ng/ul or 1x, overnight at room temperature; detected with anti-LAR or anti-human IgG (Fc) and anti-mouse:AP, BluePhos, absorbance at 650 nm; mi3 preys were purified, purification of bait not told
[6] = biological target: T1, human Nephrin, ectopically expressed in Tub>NPHS1 embryos (human, UniProt O60500 23-1241); assay: immunostaining of cells or tissue; live-dissected stage 16 embryos (WT or Tub-GAL4 overexpression) incubated 2 hr at room temperature with AP or AP5 fusion protein supernatants (1x or concentrated), fixed in 4% paraformaldehyde, detected with anti-AP antibody; staining intensity compared with WT embryos; conditions: partners not purified
T1 construct: source: Drosophila embryos, UAS-linked full-length human Nephrin cDNA driven by Tub-GAL4, live-dissected stage 16
T1 sequence (looked up): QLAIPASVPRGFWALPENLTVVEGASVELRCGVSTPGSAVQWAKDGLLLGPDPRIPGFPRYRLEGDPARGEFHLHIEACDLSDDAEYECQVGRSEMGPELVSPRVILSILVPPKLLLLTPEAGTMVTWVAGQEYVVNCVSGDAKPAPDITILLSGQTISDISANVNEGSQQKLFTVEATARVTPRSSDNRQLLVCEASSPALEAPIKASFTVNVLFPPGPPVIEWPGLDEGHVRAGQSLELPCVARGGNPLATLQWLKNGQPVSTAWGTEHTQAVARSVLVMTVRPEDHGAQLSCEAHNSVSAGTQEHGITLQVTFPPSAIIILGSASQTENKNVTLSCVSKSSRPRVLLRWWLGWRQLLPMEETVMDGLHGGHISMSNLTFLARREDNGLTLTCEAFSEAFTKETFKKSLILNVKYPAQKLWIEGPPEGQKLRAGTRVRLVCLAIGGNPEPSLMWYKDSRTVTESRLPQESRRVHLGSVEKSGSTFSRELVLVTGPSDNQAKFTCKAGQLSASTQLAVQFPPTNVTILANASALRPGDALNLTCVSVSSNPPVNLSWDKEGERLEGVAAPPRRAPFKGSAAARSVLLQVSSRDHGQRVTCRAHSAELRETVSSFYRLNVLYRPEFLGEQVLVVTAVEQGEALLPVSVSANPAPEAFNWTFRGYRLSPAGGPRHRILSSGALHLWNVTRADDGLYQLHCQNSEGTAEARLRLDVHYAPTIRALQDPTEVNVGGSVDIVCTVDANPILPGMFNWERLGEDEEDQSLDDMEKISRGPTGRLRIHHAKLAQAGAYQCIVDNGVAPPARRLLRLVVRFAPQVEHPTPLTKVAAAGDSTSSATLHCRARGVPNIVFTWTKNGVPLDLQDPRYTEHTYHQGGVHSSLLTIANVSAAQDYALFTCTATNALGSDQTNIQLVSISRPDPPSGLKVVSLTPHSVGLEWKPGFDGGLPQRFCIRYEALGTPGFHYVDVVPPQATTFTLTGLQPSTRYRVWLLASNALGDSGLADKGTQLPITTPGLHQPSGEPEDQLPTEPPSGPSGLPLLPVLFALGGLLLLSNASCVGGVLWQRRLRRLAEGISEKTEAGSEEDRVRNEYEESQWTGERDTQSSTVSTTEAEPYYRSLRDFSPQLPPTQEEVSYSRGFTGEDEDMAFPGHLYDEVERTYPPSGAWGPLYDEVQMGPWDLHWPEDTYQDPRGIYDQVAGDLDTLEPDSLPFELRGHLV

Molecule: PTPRF-AP5 fusion protein (from UniProt P10586 30-1263) (domain or fragment)
fold increase in staining vs. WT embryos [3]: 18 to 20 fold

B2: PTPRD-AP5 fusion protein (domain or fragment, human, UniProt P23468 21-1265, looked up)
chain: ETPPRFTRTPVDQTGVSGGVASFICQATGDPRPKIVWNKKGKKVSNQRFEVIEFDDGSGSVLRIQPLRTPRDEAIYECVASNNVGEISVSTRLTVLREDQIPRGFPTIDMGPQLKVVERTRTATMLCAASGNPDPEITWFKDFLPVDTSNNNGRIKQLRSESIGGTPIRGALQIEQSEESDQGKYECVATNSAGTRYSAPANLYVRELREVRRVPPRFSIPPTNHEIMPGGSVNITCVAVGSPMPYVKWMLGAEDLTPEDDMPIGRNVLELNDVRQSANYTCVAMSTLGVIEAIAQITVKALPKPPGTPVVTESTATSITLTWDSGNPEPVSYYIIQHKPKNSEELYKEIDGVATTRYSVAGLSPYSDYEFRVVAVNNIGRGPPSEPVLTQTSEQAPSSAPRDVQARMLSSTTILVQWKEPEEPNGQIQGYRVYYTMDPTQHVNNWMKHNVADSQITTIGNLVPQKTYSVKVLAFTSIGDGPLSSDIQVITQTGVPGQPLNFKAEPESETSILLSWTPPRSDTIANYELVYKDGEHGEEQRITIEPGTSYRLQGLKPNSLYYFRLAARSPQGLGASTAEISARTMQSKPSAPPQDISCTSPSSTSILVSWQPPPVEKQNGIITEYSIKYTAVDGEDDKPHEILGIPSDTTKYLLEQLEKWTEYRITVTAHTDVGPGPESLSVLIRTNEDVPSGPPRKVEVEAVNSTSVKVSWRSPVPNKQHGQIRGYQVHYVRMENGEPKGQPMLKDVMLADAQWEFDDTTEHDMIISGLQPETSYSLTVTAYTTKGDGARSKPKLVSTTGAVPGKPRLVINHTQMNTALIQWHPPVDTFGPLQGYRLKFGRKDMEPLTTLEFSEKEDHFTATDIHKGASYVFRLSARNKVGFGEEMVKEISIPEEVPTGFPQNLHSEGTTSTSVQLSWQPPVLAERNGIITKYTLLYRDINIPLLPMEQLIVPADTTMTLTGLKPDTTYDVKVRAHTSKGPGPYSPSVQFRTLPVDQVFAKNFHVKAVMKTSVLLSWEIPENYNSAMPFKILYDDGKMVEEVDGRATQKLIVNLKPEKSYSFVLTNRGNSAGGLQHRVTAKTAPDVLRTKPAFIGKTNLDGMITVQLPEVPANENIKGYYIIIVPLKKSRGKFIKPWESPDEMELDELLKEISRKRRSIRYGREVELKPYIAAHFDVLPTEFTLGDDKHYGGFTNKQLQSGQEYVFFVLAVMEHAESKMYATSPYSDPVVSMDLDPQPITDEEE
notes: human PTPRD extracellular domain, amplified from a full-length cDNA; also called PTPδ; source: Drosophila S2 cells, transfected, supernatant
fold increase in staining vs. WT embryos [6]: 3 fold

The next lines start with the values.

fold higher binding signal [1]: 3 fold
fold increase in staining vs. WT embryos [2]: 3 fold
Molecule: Sns-AP5 fusion protein (domain or fragment)

fold increase in staining vs. WT embryos [4]: > 10 fold
Molecule: Lar^HS2-alkaline phosphatase fusion protein (from UniProt P16621 33-1377) (domain or fragment)

fold increase in binding signal [5]: 7 fold
fold weaker binding signal than Kirre on Sns-AP5 [5]: 2 fold
B1: 60-mer Lar particles on the mi3 nanoparticle scaffold (Fc fusion)
chain: AHPPEIIRKPQNQGVRVGGVASFYCAARGDPPPSIVWRKNGKKVSGTQSRYTVLEQPGGISILRIEPVRAGRDDAPYECVAENGVGDAVSADATLTIYEGDKTPAGFPVITQGPGTRVIEVGHTVLMTCKAIGNPTPNIYWIKNQTKVDMSNPRYSLKDGFLQIENSREEDQGKYECVAENSMGTEHSKATNLYVKVRRVPPTFSRPPETISEVMLGSNLNLSCIAVGSPMPHVKWMKGSEDLTPENEMPIGRNVLQLINIQESANYTCIAASTLGQIDSVSVVKVQSLPTAPTDVQISEVTATSVRLEWSYKGPEDLQYYVIQYKPKNANQAFSEISGIITMYYVVRALSPYTEYEFYVIAVNNIGRGPPSAPATCTTGETKMESAPRNVQVRTLSSSTMVITWEPPETPNGQVTGYKVYYTTNSNQPEASWNSQMVDNSELTTVSELTPHAIYTVRVQAYTSMGAGPMSTPVQVKAQQGVPSQPSNFRATDIGETAVTLQWTKPTHSSENIVHYELYWNDTYANQAHHKRISNSEAYTLDGLYPDTLYYIWLAARSQRGEGATTPPIPVRTKQYVPGAPPRNITAIATSSTTISLSWLPPPVERSNGRIIYYKVFFVEVGREDDEATTMTLNMTSIVLDELKRWTEYKIWVLAGTSVGDGPRSHPIILRTQEDVPGDPQDVKATPLNSTSIHVSWKPPLEKDRNGIIRGYHIHAQELRDEGKGFLNEPFKFDVVDTLEFNVTGLQPDTKYSIQVAALTRKGDGDRSAAIVVKTPGGVPVRPTVSLKIMEREPIVSIELEWERPAQTYGELRGYRLRWGVKDQALKEEMLSGPQMTKKRFDNLERGVEYEFRVAGSNHIGIGQETVKIFQTPEGTPGGPPSNITIRFQTPDVLCVTWDPPTREHRNGIITRYDVQFHKKIDHGLGSERNMTLRKAVFTNLEENTEYIFRVRAYTKQGAGPFSDKLIVETERDMGRAPMSLQAEATSEQTAEIWWEPVTSRGKLLGYKIFYTMTAVEDLDDWQTKTVGLTESADLVNLEKFAQYAVAIAARFKNGLGRLSEKVTVRIKPEDVPLNLRAHDVSTHSMTLSWSPPIRLTPVNYKISFDAMKVFVDSQGFSQTQIVPKREIILKHYVKTHTINELSPFTTYNVNVSAIPSDYSYRPPTKITVTTQMAAPQPMVKPDFYGVVNGEEILVILPQASEEYGPISHYYLVVVPEDKSNLHKIPDQFLTDDLLPGRNKPERPNAPYIAAKFPQRSIPFTFHLGSGDDYHNFTNRKLEREKRYRIFVRAVVDTPQKHLYTSSPFSEFLSLDMREAPPGERPHRPDPNWPAEPEVSVNRNKDEPE
